Laboratory results from publication PMC3853298, “The Concave Face of Decorin Mediates Reversible Dimerization and Collagen Binding*” (The Journal of Biological Chemistry, 2013).

B1: mouse decorin core protein, wild type (residues 45-354) (domain or fragment)
chain: APLALISMCPYRCQCHLRVVQCSDLGLDKVPWDFPPDTTLLDLQNNKITEIKEGAFKNLKDLHTLILVNNKISKISPEAFKPLVKLERLYLSKNQLKELPEKMPRTLQELRVHENEITKLRKSDFNGLNNVLVIELGGNPLKNSGIENGAFQGLKSLSYIRISDTNITAIPQGLPTSLTEVHLDGNKITKVDAPSLKGLINLSKLGLSFNSITVMENGSLANVPHLRELHLDNNKLLRVPAGLAQHKYIQVVYLHNNNISAVGQNDFCRAGHPSRKASYSAVSLYGNPVRYWEIFPNTFRCVYVRSAIQLGNYKAAA
modifications: N-linked glycans (four consensus sites for N-linked glycosylation)
notes: vector-encoded residues left at the N-terminus after cleavage of the BM-40 signal peptide; decorin, mouse, UniProt P28654, residues 45-354; the numbering includes the signal peptide; corresponds to the ordered residues of the bovine decorin core crystal structure; Core protein without the glycosaminoglycan attachment region; exists in a monomer-dimer equilibrium; also called WT; wild-type mouse …
B2: mouse decorin core protein R151E (residues 45-354) (domain or fragment)
chain: APLALISMCPYRCQCHLRVVQCSDLGLDKVPWDFPPDTTLLDLQNNKITEIKEGAFKNLKDLHTLILVNNKISKISPEAFKPLVKLERLYLSKNQLKELPEKMPRTLQELEVHENEITKLRKSDFNGLNNVLVIELGGNPLKNSGIENGAFQGLKSLSYIRISDTNITAIPQGLPTSLTEVHLDGNKITKVDAPSLKGLINLSKLGLSFNSITVMENGSLANVPHLRELHLDNNKLLRVPAGLAQHKYIQVVYLHNNNISAVGQNDFCRAGHPSRKASYSAVSLYGNPVRYWEIFPNTFRCVYVRSAIQLGNYKAAA
modifications: N-linked glycans (four consensus sites for N-linked glycosylation)
notes: vector-encoded residues left at the N-terminus after cleavage of the BM-40 signal peptide; decorin, mouse, UniProt P28654, residues 45-354; the numbering includes the signal peptide; R151E reverses a charge in LRR5; source: HEK293 c18 cells, episomally transfected (pCEP-Pu), secreted; purified from conditioned medium (HisTrap, Superdex 200); not shown: His6, C-terminal, kept
B3: mouse decorin core protein Y51A/R52A/Q54A (residues 45-354) (domain or fragment)
chain: APLALISMCPAACACHLRVVQCSDLGLDKVPWDFPPDTTLLDLQNNKITEIKEGAFKNLKDLHTLILVNNKISKISPEAFKPLVKLERLYLSKNQLKELPEKMPRTLQELRVHENEITKLRKSDFNGLNNVLVIELGGNPLKNSGIENGAFQGLKSLSYIRISDTNITAIPQGLPTSLTEVHLDGNKITKVDAPSLKGLINLSKLGLSFNSITVMENGSLANVPHLRELHLDNNKLLRVPAGLAQHKYIQVVYLHNNNISAVGQNDFCRAGHPSRKASYSAVSLYGNPVRYWEIFPNTFRCVYVRSAIQLGNYKAAA
modifications: N-linked glycans (four consensus sites for N-linked glycosylation)
notes: vector-encoded residues left at the N-terminus after cleavage of the BM-40 signal peptide; decorin, mouse, UniProt P28654, residues 45-354; the numbering includes the signal peptide; triple mutation in the N-terminal cap; also called Y51A/R52A/Q54 mutant; source: HEK293 c18 cells, episomally transfected (pCEP-Pu), secreted; purified from conditioned medium (HisTrap, Superdex 200); not shown: …

Legend:
[1] = molecular target: the molecule itself; assay: SEC-MALS; injected at 3 mg/ml (83 uM) onto Superdex 200 10/30, TBS (20 mM Tris, 150 mM NaCl, pH 7.5), 0.2 ml/min; three-detector method for the polypeptide mass
[2] = molecular target: the molecule itself; assay: AUC; sedimentation velocity, 20 °C, 40,000 rpm, PBS, 0.028 (0.77 uM) to 3.4 mg/ml (94 uM); c(s) peaks of monomer and dimer integrated and fitted to a monomer-dimer equilibrium; dimer to monomers

Protein	stoichiometry N [1]	Kd [2]
B1	2	1370 ± 300 nM
B2	2	470 ± 90 nM
B3	2	2300 ± 800 nM
